Columns and labels:
Test in all cases: SPR (Biacore 8K, Protein A chip; His-tagged antigen as analyte; 1:1 Langmuir fit)
[1] = target: fasEGFR-His (ACROBiosystems Inc., Cat #: EGR-C52H5) (monkey)
Excerpt: (§1) Dissociation was monitored for 400 seconds.

[2] = target: T1, hMET-His (ACROBiosystems Inc., Cat #: MET-H5227) (human, UniProt P08581 25-932)
T1 construct: Bought reagent; also called human MET; not shown: His tag
Excerpt: as §1

[3] = target: T2, hEGFR-His (ACROBiosystems Inc., Cat #: EGR-H5222) (human, UniProt P00533 25-645)
T2 construct: Bought reagent; also called human EGFR; not shown: His tag
Excerpt: as §1

T1 sequence (P08581 25-932 limits assumed): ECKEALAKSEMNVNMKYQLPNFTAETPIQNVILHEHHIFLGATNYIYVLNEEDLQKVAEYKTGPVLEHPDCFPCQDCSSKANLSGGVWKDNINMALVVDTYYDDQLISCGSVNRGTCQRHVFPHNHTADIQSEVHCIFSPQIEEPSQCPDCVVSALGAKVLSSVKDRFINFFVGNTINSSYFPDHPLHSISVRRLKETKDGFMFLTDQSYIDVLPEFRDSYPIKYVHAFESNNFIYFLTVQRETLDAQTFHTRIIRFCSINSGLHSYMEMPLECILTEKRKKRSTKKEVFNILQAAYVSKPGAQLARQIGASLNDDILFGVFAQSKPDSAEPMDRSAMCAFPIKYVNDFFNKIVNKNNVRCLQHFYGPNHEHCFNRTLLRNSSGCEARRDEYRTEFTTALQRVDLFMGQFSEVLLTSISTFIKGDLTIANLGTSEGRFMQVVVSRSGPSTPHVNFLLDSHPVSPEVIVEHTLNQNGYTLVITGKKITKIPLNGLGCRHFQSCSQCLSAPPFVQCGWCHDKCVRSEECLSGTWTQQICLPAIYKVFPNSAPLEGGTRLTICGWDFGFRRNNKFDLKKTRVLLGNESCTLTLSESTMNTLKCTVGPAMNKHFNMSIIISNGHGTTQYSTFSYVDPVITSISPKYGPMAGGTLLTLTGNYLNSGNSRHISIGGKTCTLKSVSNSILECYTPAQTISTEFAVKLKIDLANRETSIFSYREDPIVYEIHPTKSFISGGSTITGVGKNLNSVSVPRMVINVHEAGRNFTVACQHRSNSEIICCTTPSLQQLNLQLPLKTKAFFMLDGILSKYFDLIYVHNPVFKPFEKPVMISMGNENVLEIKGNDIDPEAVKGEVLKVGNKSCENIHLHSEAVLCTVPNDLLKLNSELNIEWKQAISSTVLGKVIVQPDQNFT

B1: E-6C4-M-2F11 (bispecific antibody, human IgG1, kappa)
heavy 1: not shown
heavy 2: EVQLVESGPGLVKPSETLSLTCTVSGGSISSNYWSWIRQPPGKGLEWIGYIYHSGSTNYNPSLKSRVTISVDTSKNQFSLKLSSVTAADTAVYFCARGPVSIFGVVKYIDLWGRGTLVTVSSASTKGPSVFPLAPSSKSTSGGTAALGCLVKDYFPEPVTVSWNSGALTSGVHTFPAVLQSSGLYSLSSVVTVPSSSLGTQTYICNVNHKPSNTKVDKKVEPKSCDKTHTCPPCPAPELLGGPSVFLFPPKPKDTLMISRTPEVTCVVVDVSHEDPEVKFNWYVDGVEVHNAKTKPREEQYNSTYRVVSVLTVLHQDWLNGKEYKCKVSNKALPAPIEKTISKAKGQPREPQVCTLPPSREEMTKNQVSLSCAVKGFYPSDIAVEWESNGQPENNYKTTPPVLDSDGSFFLVSKLTVDKSRWQQGNVFSCSVMHEALHNHYTQKSLSLSPGK
light: not shown
notes: 1+1 knobs-into-holes bispecific with common light chain; also called anti-EGFR/MET bispecific antibody E-6C4-M-2F11
For B1, the Kd [1] was 115 nM, the koff [1] was 0.0198 s⁻¹ and the kon [1] was 172000 M⁻¹ s⁻¹. The Kd [2] was 50.5 nM, the koff [2] was 0.00187 s⁻¹ and the kon [2] was 37000 M⁻¹ s⁻¹. The Kd [3] was 70.7 nM, the koff [3] was 0.0215 s⁻¹ and the kon [3] was 304000 M⁻¹ s⁻¹.

B2: E-6C4 (antibody, V domains shown)
VH: QVQLQQWGPGLVKPSQTLSLTCTVSGGSINSGDYYWSWIRQPPGKGLESIGYIYYSGSTYYNPSLKSRVTISADTSKNQFSLKLTSVTAADTAVYYCARERVYSSSLDYWGQGTLVTVSS
VL: not shown
notes: Anti-EGFR human monoclonal antibody from RenLite mice with the common light chain
In the case of B2, the Kd [1] is reported as 158 nM.

— US20250122292A1 (DOMA BIOPHARMACEUTICAL SUZHOU, published 2025)
